Results from the domain aggregation screens of Martell et al. (2025).

Test: soluble fraction after stress (log2 fold change); higher = more stays soluble; pooled small domains, quantitative proteomics
Settings: stress: 75 degC
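Also: 20 min heating vs room temperature control held 20 min.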

| Sequence | soluble fraction (log2) |
| --- | --- |
| HMAAAQILRAAVLRVPAEETMRFVTETPELRRYLGASLGPTAAIVRPGQEQNLAAALQSHGILVEFDE | -0.0423 |
| HMAADLIGLEARVTLPLTEDQRGFIETSVRGSLVRRAALSASGRLDRGQRVVILRSEGTTLIVDAL | -3.37 |
| HMAADRRKAERPLIDGQAVMDRFEVGPGPMVGKALKFLLALKRAEPDLDLAGTEERLDAWWNEQL | 0.0606 |
| HMAAEFERKNGIVYFFHSSEKPHLNYPHVHARYGEDTISISLRDFTVIGSFSSKKKQKEAVEYVKNK | -0.829 |
| HMAAEPDQQLIKPASDPVLRTMKIEELMKMSEQVKIQMSKAAKNFDYLEAARLRDEHFALENLIKLRS | -0.106 |
| HMAAGELSGEALIALIERHPMALSALATTFGHSESDLRAFVEPLARQGRLRLFESQGTLFVGGIG | -0.5 |
| HMAAHHIILEEREQLSVSGVEEVESFDENTIVMLTNRGTLIVRGEELHIEKLSLDGGDLRVEGSIDSLTYE | -0.465 |
| HMAAHWANFLEALRAGRARRVLVARGVEGWLLKELERLGAPYTLVPRIELDTLLRTTHHQGIAAEVE | -1.46 |
| HMAAPELLTVRERQVAALISDGLSNQQIAHRLHLEVTTVKAHIGSIFNRLDMNNRVQIAIWAHDRQLVFS | -0.161 |
| HMAAQDIILKRNAEQIEAIVKEITDTDVKYRKFTNTEGVTYSIRRSEVFSITYENGTMDLFA | 0.248 |
| HMAAQDLIVKTDASQVEARVLEISPDAVRYKRFSNPDGPTYVLPVAEIRYIRYANGEVEYYA | -0.624 |
| HMAAQLAHVPAVTGRPLAEAQRILADNRLNAQVTQQPVAEPKLDGVVIAQKITEGTRTMRGATVPLIVGKY | -0.00421 |
| HMAASGTVNSGGDPLRVRADPNTSSQILTKLSDGTQVEVLEQAENGWYKIAHEGISGFVSGEYLVVH | 0.0197 |
| HMAAVAPPVLERIASDLATRFAGTLSPETVDRYVRESYHLLAERAGITRYLPSLTARFAGDRLDA | 0.0295 |
| HMAAVEDLPVKSVNGKKYHYYTVQPKESLYSLSHKLGISRQEIIKYNPGVEDGLKAYEDLLFPYTPK | 0.192 |
| HMAAVSTDEEFAALGIPAEWIPVLKSNGFQTVESLKKVAPGALFNQLGGLRKKNKLEIAMPSLDQVKAWLA | 0.333 |
| HMADDFISTLFSEGIIIDTEVKQFAERQGSPLQFVRHIASNLPEPRDIITMGEVRSVMREGA | -0.00121 |
| HMADEEEIMVPQVVGKTYDEAKSELENAGFKVEKNEKTSDKASGTVISQSINGGAKKGTSVTLTVSKGN | 0.0356 |
| HMADFYEVLGVERNASSDQIKRAYRKLARELHPDVNLDPVAQNRFKEVTEAYEVLSDPNKRSNFDRG | 0.0366 |
| HMADGEWAEMQRQLTAAGLLVVGRAAQERIQRLSDISPLIEAAQRSNVVMLSERTVDEVLTLVPT | -0.225 |
| HMADGTSIYAEREVLYVTSPTANTAKVYNVSGALVRTMTLSAGQTVRTALPAGFYVVALGNGNTHKVIV | -2.4 |
| HMADKSLLELPGLDGDKVSALVTAGVRNVNDLADLATDELVEKTGFDEKTAADLIIAARAVVY | 0.43 |
| HMADLNQTDIDSITKSVGGVEQYKSLMDWAGKTLSQDAIDSFDDLVNTGNKGSIQLAVNGLVAQYQNDN | 0.167 |
| HMADMKIHLRPYAHDTNRWHVDIRLMHPTAATEIRKRLVAPAGLSEAQARAWGERQVPTILGKALGVI | -1.65 |
| HMADNILPAQTDAIKALATENGFSNESLEKYLIENYGTTIYGLSRNQGIQIINLFQSENPPKP | 0.277 |
| HMADQIIEGILGKEGGYVNNPNDKGGPTRWGITQTTARAYGYSGDMKALPRDTAKAIYLSQYWT | -0.0711 |
| HMADTPQAYIRQMVQEAGADGIMLSTITDRLRARFKDFKVRDLGYAQMRQYMASTGTYDLEKSGRNFRVHL | -1.06 |
| HMADTSLDHLGVLVRHASDVDAWAEFFENRGVTLASQPRTHRDGARSFYVDDPDGNRVQVIYHPPI | -0.779 |

| Sequence | soluble fraction (log2) |
| --- | --- |
| HMADWTETELAALRRAYASGTTRVSYDGKSVDYGSAEDLLSRIRTLQGAASDVAADAVAAVDA | -0.0473 |
| HMADYSMDDNAWNAKKADIDEWFEANPDFSANKAITDGLFSIGDSQVEMRKRYWASIAGVFAGLPNSPIG | 0.0121 |
| HMAEANTEADFVAIGVRAELLPILQKLGVHTIEQLKGIKATKLFNDIPGMRKKLKLDAVQNPTLQEIEGWL | -0.146 |
| HMAEAPGSVELLAERLRPWWEIHGGEWGSKTKALRFLFGDQAPVAGSYWRALEAAIAQIESTT | -0.692 |
| HMAEKNALWEEDAVYAADSSALARDGYDAIVRTDKGGKKGYLVVGTGGRERFMPLQTLVMLGYLKK | -0.433 |
| HMAEKRTAIITTARADIRQKPEATAPLAFEAVKDVVLELTDKPADGWVRVKHRDGSTGYIRINQI | 0.0638 |
| HMAELAKAKLDAAVQVALLKAGALDTDYLAYKLQGMDGVALDDKGSLTGWDTTLETLKSQYPTQFA | -0.368 |
| HMAEPTLNERLREALSDPAKLKIAKAIKAKYPIITARDIDTFLNMHEKDIENGADPMDEFEEFFHANY | 0.201 |
| HMAEPYDEDKVMEHLYIKGKDVVIAHLKHLKEHNEHVWLKKGVEWMQKNQDRLGFDMMEVIYVVHNH | -0.833 |
| HMAEQEELDAIRPDLDGQEIMDILGIKPGREVGAARNFLLELRLDEGPLGYDEAVSRLLTWWAERT | -0.0583 |
| HMAETLLWADAAQEGLNRIVAAQPILVRISAAKRLRDASEQAAKAAGVSTVEIGHVQHASESLQFGDA | 0.0809 |
| HMAETLRLVGATNLNTLARARHPDDLAARNEFRRAIAQANPALFAGKSKVGSVSLPAGTVLALPPEV | 0.0163 |
| HMAEVDDESIKLYDGGYQSNTTKSRLNALLSEFGYDTEHVFQKQFEWFISIFDLTEKAMRTVPFSNGMRL | 0.0627 |
| HMAEVGDFTLAELIKVLFNEAGVLKAPVELRNDNTGGLQYRVGAYTDSETGWETIASIADLKGA | -0.734 |
| HMAEWLLVQLTNGNWFYGEVIEKTDATIVLNTDILGKVSIQKLDIRRSISGPLTAAKRQEIEDSERAKD | -1.65 |
| HMAFDDAHYKDMITSYLKKFKKGNRSEIENLIIPKLSEVLVEKQKKDKVKNLLQALRKDNQIRLKGKYWYL | 0.422 |
| HMAFIEADIGKRIKSLRNKKRITLESLAAETGFTKGYLSKVETSEKAPPVSTLGSIARALGVSISTLLGE | -1.31 |
| HMAFKDDDVQKAYDRYMDRYGELSVLYSDNGLKVDDDLFYKNNIPPNGKFTKEFFDELYELVNMEFINNY | -0.173 |
| HMAFRLPNGYGTIRRLTGNRRKPYVALVNPTQVFDDEKGTSHYKYDLLGTFAEKIDAYNAVMQYHKSPGGL | -1.13 |
| HMAGAPANLAARLREQILQGAYHDGQRLPAERHLAAEHGVSRGTVREALRLLEQGALLTRKRGSGSYVTYP | -0.516 |
| HMAGDVVVEVVGKVRDPQVVTLPKGSRVQDALEAAGGVKPGVNTTDQNLARLLVDGEQIRIGLSS | 0.107 |
| HMAGFGDSLEKMSDAVEALKLLMSTEDARNDQNIQKIARELKDVFNKYRTHLRKSYPDQYDRIKSTL | -0.742 |
| HMAGGNHPTRLELLDSAAHIAERDGTSALTVDAITKSAGHAKGTFYIHFDDRADLLVEMHRR | -0.247 |
| HMAGIPIHMSQLKQIILLLSQGYPIKGIARETGVSRNTIKGYLQTLTSQDLNVTDALKLENIQLEYLLRSP | -1.97 |
| HMAGLYSLLLVELPMERLPEDLPAIKAAWLKTGDTEAFKVALQAMSSRGWTIAVPGKHRDTQMTQL | 0.259 |
| HMAGPVLTPEEAEVLRILADHGEMTVDNISAEGKMSAAVVLRGLGVLSAYGLVAPGGPGRWRSE | -0.806 |
| HMAGTDLSERESEIAMLLLKGYPYKLIASRLYISESTVKSHVQNIYGKLGIHSRTELIEQFSAS | -0.649 |
